Publication PMC10351740, “ZCCHC3 is a stress granule zinc knuckle protein that strongly suppresses LINE-1 retrotransposition” (PLOS Genetics, 2023)

What was measured:
[1] = target: T1, ZCCHC3-FL (Zinc Finger CCHC-Type Containing 3 with C-terminal FLAG epitope tag) (human, UniProt Q9NUD5 1-403); assay: co-IP; HEK 293T lysates, FLAG-tagged bait on α-FLAG-M2 antibody bound to Protein G Dynabeads, 3 h at 4°C, 5 washes; endogenous ORF1p detected with polyclonal α-L1Hs-ORF1p; bands quantified with ImageJ (IP/input compared with empty vector); details: partners not purified
T1 construct: ZCCHC3 (Zinc Finger CCHC-Type Containing 3), human; made by PCR amplification of V5-TEV-ZCCHC3 (Ultimate ORF clone IOH40787); legend calls it the 44 kD full-length ZCCHC3-FL; also called FLAG-tagged ZCCHC3; wild-type ZCCHC3-FL; source: HEK 293T, transfected, in lysate; not shown: FLAG, C-terminal, kept
T1 sequence (looked up): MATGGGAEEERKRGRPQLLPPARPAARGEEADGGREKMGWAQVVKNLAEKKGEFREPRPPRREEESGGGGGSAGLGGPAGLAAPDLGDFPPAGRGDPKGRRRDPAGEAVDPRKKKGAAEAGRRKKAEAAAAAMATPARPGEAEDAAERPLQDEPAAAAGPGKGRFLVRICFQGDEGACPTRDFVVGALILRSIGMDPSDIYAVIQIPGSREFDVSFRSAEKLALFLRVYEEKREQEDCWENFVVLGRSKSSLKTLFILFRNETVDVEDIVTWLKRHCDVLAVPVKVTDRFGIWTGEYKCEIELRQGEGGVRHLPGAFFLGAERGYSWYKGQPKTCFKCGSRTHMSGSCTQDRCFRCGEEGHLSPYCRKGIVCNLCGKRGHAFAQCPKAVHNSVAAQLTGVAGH

[2] = target: T2, ZCCHC3-FL-7AA (zinc knuckle mutant of ZCCHC3-FL) (human, UniProt Q9NUD5 1-403, C353,366,372,375A | C353,366,372,375A | C353,366,372,375A | C353,366,372,375A | …); assay: as above; details: partners not purified
T2 construct: also called zinc-finger mutant ZCCHC3-FL-7AA; source: HEK 293T, transfected, in lysate; not shown: FLAG, C-terminal, kept
T2 sequence (looked up): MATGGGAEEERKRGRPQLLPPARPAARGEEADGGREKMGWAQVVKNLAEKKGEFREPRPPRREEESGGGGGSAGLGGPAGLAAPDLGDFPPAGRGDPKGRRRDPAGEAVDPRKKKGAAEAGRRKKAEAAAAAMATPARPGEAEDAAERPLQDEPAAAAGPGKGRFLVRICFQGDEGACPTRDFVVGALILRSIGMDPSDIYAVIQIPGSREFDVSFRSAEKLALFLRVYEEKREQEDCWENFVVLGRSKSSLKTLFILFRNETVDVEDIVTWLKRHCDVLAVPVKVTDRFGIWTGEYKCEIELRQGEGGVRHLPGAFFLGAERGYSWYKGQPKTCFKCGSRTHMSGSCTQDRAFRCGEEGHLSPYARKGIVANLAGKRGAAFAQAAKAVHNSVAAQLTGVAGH

B1: endogenous L1 ORF1p (natural protein, human (endogenous in HEK 293T), UniProt Q9UN81 1-338, looked up)
chain: MGKKQNRKTGNSKTQSASPPPKERSSSPATEQSWMENDFDELREEGFRRSNYSELREDIQTKGKEVENFEKNLEECITRITNTEKCLKELMELKTKARELREECRSLRSRCDQLEERVSAMEDEMNEMKREGKFREKRIKRNEQSLQEIWDYVKRPNLRLIGVPESDVENGTKLENTLQDIIQENFPNLARQANVQIQEIQRTPQRYSSRRATPRHIIVRFTKVEMKEKMLRAAREKGRVTLKGKPIRLTADLSAETLQARREWGPIFNILKEKNFQPRISYPAKLSFISEGEIKYFIDKQMLRDFVTTRPALKELLKEALNMERNNRYQPLQNHAKM
notes: LINE-1 ORF1 protein, endogenous in HEK 293T cells; Endogenous ORF1p comes from many L1 loci; also called endogenous ORF1p; source: endogenous, HEK 293T lysate
[1]
  fold increase over empty vector controls (IP/input band intensity): 5 fold
[2]
  fold reduction against wild-type ZCCHC3-FL (band intensity): 2 fold
